Source: article PMC10457294 (Nature Communications, 2023)

B1: human B7.2 ectodomain, His-tagged (domain or fragment)
chain: LKIQAYFNETADLPCQFANSQNQSLSELVVFWQDQENLVLNEVYLGKEKFDSVHSKYMGRTSFDSDSWTLRLHNLQIKDKGLYQCIIHHKKPTGMIRIHQMNSELSVLANFSQPEIVPISNITENVYINLTCSSIHGYPEPKKMSVLLRTKNSTIEYDGVMQKSQDNVTELYDVSISLSVSFPDVTSNMTIFCILETDKTRLLSSPFSIELED
notes: also called hB7.2; CD86
B2: human B7.2 ectodomain fused to human Fc (Fc fusion)
chain: B1 chain
notes: also called hB7.2-Fc; hB7.2-hFc; not shown: Fc (human), C-terminal, kept
B3: human B7.1 ectodomain, His-tagged (domain or fragment)
chain: VIHVTKEVKEVATLSCGHNVSVEELAQTRIYWQKEKKMVLTMMSGDMNIWPEYKNRTIFDITNNLSIVILALRPSDEGTYECVVLKYEKDAFKREHLAEVTLSVKADFPTPSISDFEIPTSNIRRIICSTSGGFPEPHLSWLENGEELNAINTTVSQDPETELYAVSSKLDFNMTTNHSFMCLIKYGHLRVNQTFNWNTT
notes: also called hB7.1; CD80
B4: human B7.1 ectodomain fused to human Fc (Fc fusion, UniProt P33681-1 35-234, looked up)
chain: B3 chain
notes: also called hB7.1-Fc; hB7.1-hFc; not shown: Fc (human), C-terminal, kept

Columns and labels:
[1] = target: MPXV Bio-M2 (site-specifically biotinylated MPXV Avi-M2) (monkeypox virus (Clade I), UniProt Q8V554 18-220); experiment: BLI; […] (10 ug/mL) […]; 10 mM HEPES pH 7.4, 150 mM NaCl, 3 mM EDTA, 1% BSA; 1:1 Langmuir model, […]; conditions: both partners purified
[2] = target: T1, MPXV M2 (monkeypox virus M2 protein), His-tagged, wild type (monkeypox virus (Clade I), UniProt Q8V554 18-220); experiment: BLI; […] (10 ug/mL) […]; 10 mM HEPES pH 7.4, 150 mM NaCl, 3 mM EDTA, 0.05% Tween, 1% BSA; 25 °C; 1:1 model; […]; conditions: both partners purified
T1 construct: copies: 6 or 7

| Binder | Kd [1] [nM] | t1/2 (dissociation half-life time) [1] [min] | Kd [2] [nM] |
| --- | --- | --- | --- |
| B1 | 388 | 0.345 | – |
| B2 | – | – | 0.05 |
| B3 | 95.3 | 1.71 | – |
| B4 | – | – | 0.15 |
